Data as given in PMC8363725, “Mapping the biosynthetic pathway of a hybrid polyketide-nonribosomal peptide in a metazoan” (Nature Communications, 2021).

Key:
PKAL-1 = target: T1, PKAL-1 (Caenorhabditis elegans, UniProt O02171); experiment: enzyme-coupled continuous spectrophotometric assay (NADH); format: biochemical; conditions: 4 mM ATP, 10 mM MgCl2, 100 mM hydroxylamine as acceptor, Tris pH 7.4, 22 °C; apparent
T1 construct: PKAL-1 from C. elegans cDNA library in pET16b-KH01, C-terminal His tag, expressed in E. coli BL21(DE3), Ni resin and Superdex 200
T1 sequence (O02171 1-497): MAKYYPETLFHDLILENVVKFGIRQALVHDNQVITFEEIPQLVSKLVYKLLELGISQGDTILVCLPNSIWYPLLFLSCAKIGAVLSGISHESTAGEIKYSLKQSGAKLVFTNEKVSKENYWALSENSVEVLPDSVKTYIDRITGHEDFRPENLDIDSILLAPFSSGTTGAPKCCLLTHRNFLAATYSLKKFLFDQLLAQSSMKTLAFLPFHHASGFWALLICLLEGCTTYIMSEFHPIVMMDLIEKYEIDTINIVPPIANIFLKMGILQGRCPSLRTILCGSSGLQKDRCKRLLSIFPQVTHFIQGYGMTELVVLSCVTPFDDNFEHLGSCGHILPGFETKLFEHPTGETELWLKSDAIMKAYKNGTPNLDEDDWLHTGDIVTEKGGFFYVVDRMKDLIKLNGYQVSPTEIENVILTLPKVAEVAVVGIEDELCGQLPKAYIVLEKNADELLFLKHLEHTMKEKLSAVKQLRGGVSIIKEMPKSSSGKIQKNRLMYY

purified protein = substrate: CCCCCCCCCCCCCCCC(=O)O; experiment: purified protein; conditions: 4 mM ATP, 10 mM MgCl2, 100 mM hydroxylamine as acceptor, Tris pH 7.4, 22 °C, apparent
[1] = substrate: CCCCCCCCCC(=O)O; experiment: enzyme-coupled continuous spectrophotometric assay (NADH); format: biochemical, Caenorhabditis elegans; conditions: 4 mM ATP, 10 mM MgCl2, 100 mM hydroxylamine as acceptor, Tris pH 7.4, 22 °C, apparent
[2] = substrate: CCCCCCCCCCCC(=O)O; experiment: as above; format: biochemical, Caenorhabditis elegans; conditions: 4 mM ATP, 10 mM MgCl2, 100 mM hydroxylamine as acceptor, Tris pH 7.4, 22 °C, apparent
[3] = substrate: CCCCCCCCCCCCCC(=O)O; experiment: as above; format: biochemical, Caenorhabditis elegans; conditions: 4 mM ATP, 10 mM MgCl2, 100 mM hydroxylamine as acceptor, Tris pH 7.4, 22 °C, apparent

With CCCCCCCC(=O)O [C8] the Km (PKAL-1) was “C12, which is in turn preferred over C10 and C8”.

B1: PKAL-1 (Caenorhabditis elegans) (protein)
chain: T1 sequence (O02171 1-497)
notes: PKAL-1 from C. elegans cDNA library in pET16b-KH01, C-terminal His tag, expressed in E. coli BL21(DE3), Ni resin and Superdex 200
With B1 the Km (purified protein) was 8.7 ± 0.4 µM, the kcat (purified protein) was 0.0127 ± 0.000484 s⁻¹ and the Km [1] was 411.0 ± 20.2 µM. The kcat [1] was 0.0437 ± 0.00284 s⁻¹, the Km [2] was 84.6 ± 17.5 µM and the kcat [2] was 0.00943 ± 0.00211 s⁻¹. For the same molecule, the Km [3] was 21.8 ± 2.6 µM and the kcat [3] was 0.03 ± 0.00223 s⁻¹.
